Here are results for two proteins from paper PMC8472802, “Agaricales Mushroom Lignin Peroxidase: From Structure–Function to Degradative Capabilities” (Antioxidants, 2021).

Assay in all cases: purified protein
Common to all, as to type: biochemical, Agrocybe pediades

Substrate in data set [1]: CCn1c(=NN=c2sc3cc(S(=O)(=O)O)ccc3n2CC)sc2cc(S(=O)(=O)O)ccc21
Substrate in data set [2]: COc1ccc(CO)cc1OC
Particulars: pH 4.0, 25 °C, 0.4 mM H2O2, fit with substrate inhibition.

Substrate in data set [3]: COc1cccc(OC)c1O
Substrate in data set [4]: Nc1c(N=Nc2ccc(S(=O)(=O)CCOS(=O)(=O)O)cc2)c(S(=O)(=O)O)cc2cc(S(=O)(=O)O)c(N=Nc3ccc(S(=O)(=O)CCOS(=O)(=O)O)cc3)c(O)c12
Particulars: Hill n = 2.11 ± 0.30, pH 3.0, 25 °C, 0.4 mM H2O2.

[5] abbreviates: high-efficiency site of biphasic kinetics, Hill n = 1.62 ± 0.12, 100 mM sodium tartrate pH 3.0, 25 °C, 0.4 mM H2O2.
Where [6] appears, read: pH 3.0, 25 °C, 0.4 mM H2O2, fit with substrate inhibition.
The mark [7] stands for this setting: low-efficiency site (only site left), Hill n = 1.62 ± 0.28, strong substrate inhibition, pH 3.0, 25 °C, 1 mM H2O2.
[8] abbreviates: pH 8.0, 25 °C, 1 mM H2O2, Michaelis-Menten fit despite substrate/product inhibition, no activity at pH 3.

B1: ApeLiP (LiP of Agrocybe pediades) (Agrocybe pediades) (protein)
chain: AVTCPTGQTTANEACCVLFPVIDLLQEELFDGGECGEEAHAALRLAFHDAIGFSKNGGKGGGADGSILAFHQTETTYAANSGIEDIITAQLPIFQKTNLTAGDFVHLAAAIGTGNCPGSPQLAYSFGRPPPVAPAPDGTVPEPTDSVTDILARFSEAGFVTAEVIWLLASHSIAAASKIDTSAPRTPFDSTPALFDTQFYLETILNGTLLPGDGGAHTGEVLSPIAGEMRLQSDFAFAQDPRTACLWQEPINDQAFIQGKFFAAMKKLQVLGQTGLTDCSDVIPVPASLPGPITFPAGFSEADVISACTATPLPSLATIAGPKPTIPPVPL
By kcat is commonly meant the number of substrate molecules converted per active site and unit of time at saturation. As usually defined, the kcat/Km is the second-order rate constant that governs catalysis at low substrate concentration. A word on the Km: it is the substrate concentration at which the rate is half of its maximum. B1: the K0.5 in data set [1] (setting [5]) is on record as 8.1 ± 0.6 µM; in data set [4], 14 ± 1.4 µM. For the same protein, the kcat in data set [1] (setting [5]) stood at 42 ± 1.8 s⁻¹; in data set [2], 4.3 ± 0.3 s⁻¹; in data set [3] (setting [6]), 68.6 ± 2.8 s⁻¹; in data set [4] it was 21 ± 1.5 s⁻¹. Also, the catalytic efficiency (kcat/Km) was 5130 ± 460 s⁻¹ mM⁻¹ in data set [1] (setting [5]), 150 ± 30 M⁻¹ s⁻¹ in data set [2], 1.91e+06 ± 310000 M⁻¹ s⁻¹ in data set [3] (setting [6]) and 1.54e+06 ± 115000 M⁻¹ s⁻¹ in data set [4]. Besides, the Km entry in data set [2] is “(29.6 ± 4.6) × 10^3 µM”; in data set [3] (setting [6]), 37 ± 5.6 µM.

B2: ApeLiP (LiP of Agrocybe pediades) (Agrocybe pediades; W166A) (protein)
chain: AVTCPTGQTTANEACCVLFPVIDLLQEELFDGGECGEEAHAALRLAFHDAIGFSKNGGKGGGADGSILAFHQTETTYAANSGIEDIITAQLPIFQKTNLTAGDFVHLAAAIGTGNCPGSPQLAYSFGRPPPVAPAPDGTVPEPTDSVTDILARFSEAGFVTAEVIALLASHSIAAASKIDTSAPRTPFDSTPALFDTQFYLETILNGTLLPGDGGAHTGEVLSPIAGEMRLQSDFAFAQDPRTACLWQEPINDQAFIQGKFFAAMKKLQVLGQTGLTDCSDVIPVPASLPGPITFPAGFSEADVISACTATPLPSLATIAGPKPTIPPVPL
Turning to B2, in data set [1] (setting [7]), the K0.5 is reported as 1150 ± 190 µM, the turnover number (kcat) is reported as 117 ± 10 ^c s^-1 and the kcat/Km was 102 ± 19 ^c s^-1·mM^-1. Further, in data set [3] (setting [8]), the Km is given as 49 ± 8.2 µM, the kcat was 6.1 ± 0.27 s⁻¹ and the kcat/Km is 125000 ± 22000 M⁻¹ s⁻¹.
